Holding throughout (experiment): IEDB peptide-MHC binding, purified MHC/competitive/radioactivity; filed as Kd, often an IC50 or EC50 that approximates it; ≥ and ≤ were set here for values at or beyond the usual limits of such assays
Holding throughout (conditions): source organism: Homo sapiens

Test [1] deals with HLA-A*03:01.
The target of test [2] is HLA-A*31:01.
For test [3], the target named is HLA-A*11:01.
Test [4] concerns the target HLA-A*33:01.
The target of test [5] is HLA-A*68:01.

As to LLGPGRPYR, the Kd in test [1] was found to be 570 nM; in test [2] it was 11 nM; in test [3], 656 nM; in test [4], 106 nM; in test [5], 1090 nM.
Taken in the same sequence, the figures for MSLQRQFLR were 54 nM, 8.3 nM, 8.3 nM, 14 nM and 8.5 nM.

One may read the Kd as a measure of binding affinity in units of concentration.

The values above are taken from the Immune Epitope Database (IEDB).
